According to WO2013139956A1 (dated 2013):

What was measured:
Assay in all cases: ELISA, biotin-peptide on neutravidin plate, antibody 1 ug/ml
[1] = target: peptide … (SEQ ID NO:84), N-terminally biotinylated (human)
[2] = target: T1, peptide … (SEQ ID NO:74), N-terminally biotinylated (human)
T1 sequence (peptide, N-terminally biotinylated): EISQEVAGDVFPSY

[3] = target: peptide … (SEQ ID NO:76), N-terminally biotinylated (human)
[4] = target: peptide … (SEQ ID NO:78), N-terminally biotinylated (human)
[5] = target: peptide … (SEQ ID NO:79), N-terminally biotinylated (human)
[6] = target: peptide … (SEQ ID NO:86), N-terminally biotinylated (human)
[7] = target: T2, peptide … (SEQ ID NO:51), N-terminally biotinylated (human)
T2 sequence (peptide, N-terminally biotinylated): EISQEVRGDVFPSY

[8] = target: peptide … (SEQ ID NO:81), N-terminally biotinylated (human)
[9] = target: peptide … (SEQ ID NO:82), N-terminally biotinylated (human)
[10] = target: peptide … (SEQ ID NO:83), N-terminally biotinylated (human)
[11] = target: T3, peptide … (SEQ ID NO:77), N-terminally biotinylated (human)
T3 sequence (peptide, N-terminally biotinylated): EISQEVAADVFPSY

[12] = target: peptide … (SEQ ID NO:85), N-terminally biotinylated (human)
[13] = target: T4, peptide … (SEQ ID NO:75), N-terminally biotinylated (human)
T4 sequence (peptide, N-terminally biotinylated): EISQEVRADVFPSY

[14] = target: peptide … (SEQ ID NO:80), N-terminally biotinylated (human)

absorbance 450 nm minus 540 nm [1]: 0.29 absorbance
absorbance 450 nm minus 540 nm [2]: 0.24 absorbance
absorbance 450 nm minus 540 nm [3]: 0.24 absorbance
absorbance 450 nm minus 540 nm [4]: 0.28 absorbance
absorbance 450 nm minus 540 nm [5]: 0.28 absorbance
absorbance 450 nm minus 540 nm [6]: 0.34 absorbance
absorbance 450 nm minus 540 nm [7]: 0.28 absorbance
absorbance 450 nm minus 540 nm [8]: 0.27 absorbance
absorbance 450 nm minus 540 nm [9]: 0.24 absorbance
absorbance 450 nm minus 540 nm [10]: 0.24 absorbance
absorbance 450 nm minus 540 nm [11]: 0.24 absorbance
absorbance 450 nm minus 540 nm [12]: 0.41 absorbance
absorbance 450 nm minus 540 nm [13]: 0.22 absorbance
absorbance 450 nm minus 540 nm [14]: 0.31 absorbance
Substance: rabbit polyclonal antibody preparation raised against amino acids 56-190 of murine MFG-E8 (Santa Cruz sc-33546)
